Reference: the RNAGym collection of RNA variant scans (doi:10.1073/pnas.2313332121)
This sample holds only a part of the variants without activity.

B1: TPR 5TU (parent)
chain: GGAUCUUCUCGAUCUAACAAAAAAGACAAAUCUGCCACAAAGCUUGAGAGCAUCUUCGGAUGCAGAGGCGGCAGCCUUCGGUGGCGCGAUAGCGCCAACGUUCUCAACUAUGACACGCAAAACGCGUGCUCCGUUGAAUGGAGUUUAUCAUG

Variants of: B1
Experiment: polymerase ribozyme fitness, log enrichment relative to wild type (log ratio); higher = more active; in vitro selection for triplet polymerase activity
Outline: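 Genotype fitness is the logarithm of its enrichment divided by wild-type enrichment, using inverse-variance-weighted averages of replicates. That logarithm is base 2. Enrichment was measured by Illumina sequencing of input and output libraries from one triplicate in vitro selection round, with frozen incubation at −7 °C, on PCR-built, transcribed mutant libraries of each subunit of a heterodimeric triplet polymerase ribozyme, retaining genotypes with ≥10 input reads and ≥1 read per output.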

Polymerase ribozyme fitness (log ratio), -4.01:
GGAUCUUCUAGAUCUAACAAAAAAGACAAAUCUGCCACAAAGCUUGAGAGCAUCUUCGGAUGCAGAGGCGGCAGCCUUCGGUGGUGCGAUAGCGCCAACGUUCUCAACUAUGACACGCAAAACGCGUGCUCCGUUGAAUGGAGUUUAUCAUG

Polymerase ribozyme fitness (log ratio), -4.05:
GGAUCUUCUAGAUCUAACAAAUAGGACAAAUCUGCCACACAGCUUGAGAGCCUCUUUGGAUGCAGAGGCAGCAGCCUUCGGUGGCGCGAUAGUGCCAACGUUCUCAACUAUGACACGCAAAACGCGUGCUCCGUUGAAUGGAGUUUCUCAUG

Polymerase ribozyme fitness (log ratio), -3.57:
GGAUCUUCUAGAUCUAACAAAAAAGACAAAUCUGCCACAAAGCUUGAGAGCAUCUUCGGAUGCAGAGGCGGCAGCCUUCGGUGGCGCGAUAGCGUCAACGUUCUCAACUAUGACACGCAAAACGCGUGCUCCGUUGAAUGGAGUUUAUCAUG

Polymerase ribozyme fitness (log ratio), ≤ -4.2:
GGAUCUUCUAGAUGUAACAAAAAAGACAAAUCUGCCACAAAGCUUGAGAGCAUCUUCGGAUGCAGAGGCGGCAGCCAUCGGUGGAGCGAUAACGCCAACGUUCUCAACUGUGACACGCAAAGCGCGUGCUCCGUUGAAUGGAGUUUAUCAUG
GGAUCUUCUAGAUCUAACCAAAAAGACAUAUCUGCUACAAAGCUUGAGAGCAUCUUUAGAUGCAGCCGCGGCAGCCUUCGGGGUCGCGAUAGCGCCAACGUUCUCAACAAUGACACGCAAAACGCGUGCUCCGUUGAAUGGAGUUUAUCAUG
GGAUCUUCUAGAUCUAACAAAACACACAAAUCUGCCACAAAGCUUGAGAGCAUCUUCGGAUGCAGAGGCGGCAGCCUUCGGUGGCGCGAUAACGCCAACGUUCUCAACUAUGUCACGCAAAACGCGUGCUCCGUUGAAUGGAGUUUAUCAUG
GGAUCUUCUAGAUCUAACAGAAAAGACAAAUCUGCCACAAGGCUUACGAGCAUCUUUGGAUGCAGAGGCGGCAGCCUUCGGUGGGGCGAUAGCGCCAACGUUCUCAACUAUGACACGCAAAACGCGUGCUCCUUUGAAUGGAGUUUAUCAUG
GGAUCUUCUAGAUUUAACAAAAAAGACAAAUCUGCCACAAAGCUUGAGAGCAUCUUCGGAUGCAGAGGCGGCAGCCUUCGGUGGCGCGAUAGGGCCAACGUUCUCAACUAUGACACGCAAAACGCGUGCUCCGUUGAAUGGAGUUUAUUAUG
GGAUCUUCUAGAUCUAACAAAAAAGACAAAUCUGCCACAAAGCUUGAGAGUAUCUUCGGAUGCAGAGGCGGCAGCCUUCGGUGGCGCGAUAGUGCCAACGUUCUCAACUAGGACACGCAAAACGCGUGCUCCGUUGAAUGGAGUUUAUCAUG
GGAUCUUCUAGAUCUAACAAAGAAGACAAAUCUGCCACAAAGCUUAAGAGCAUUUUCGGAUGCAGAGGCGGCAGGCUUCGGUUGCGCGAUAGCGACAACGUUCUCAACUAUGACACGCAAAACGCGUGCUCCGUUGAAUGGAGUUUAUCAUG
GGAUCUUCUAGAUCUAUCAAAAAAGACAAAUCUGCUACAAAGCUUGAGAGCAUCUUCGGAUGCAGAGGCGGCAGCUUUCGGUGUCGCGAUAGCGCCAACGAUCGCAAUUAUGACACGCAACACGCGUGCUCCGUUGAAUGGAGUUUAUCAUG
GGAUCUUCUAGAUCUAACAAAAAAGACAAAUCUGCCACAAAGCUUGAGAGCAUCUUCGGAUGCAGAGGCGGCAGCCUUCGGUGGGGCGAUAGCGCCAACGUUCUCAACUAUGACACGCAAAACGAGUGCUCCGUUGAAUGGAGUUUAUCAUG
GGAUCUUCUAGAUCUAACAAAAAAGACAAAUCUGCCACAAAGCUUGAGAGCAUCUUCGGAUGCAGAGGUGGCAGCCUUCGGUGGCGCGAUAGCGCCAACGUUCUCAACUAUGACACGCAAAACGCGUGCUCCGUUGAAUGGAGUUUAUCAUG
GGAUCUUCUAGAUCUAACAAAAAAGACAAAUCUGCCACAAGGCUUGAGAGCAUCUUCGGAUGCAGAGGCGGCAGCCUUCGGUGGCGCGAUAGCGCCAACGUUAUCAACUGUGACACGCAAAACGCGUGCUCCGUUGAAUGGAGUUUAUCAUG
GGAUCUUCUAGAUCUAACAAAAUAGACAAAUCUGGCACAAAGCUUGAGAGCAUCUUCGGAUGCAGAGGCGGCAGCCUUCGGUGGCGCGAUAGCGGCAACGUUCUCAACUAUGACACGCAAAACGCGUACUCCGUUGAAUGGAGUUUAUCAUG
GGAUCUUCUAGAUCUAACAAAAAAGACAAAUCUGCCACUAAGCUUGAGAGCAUCUUCGGAUGCAGAGGCGGCAGCCUUCGGUGGCCCGAUAGCGCCAACGUUCUCAACGAUGACACGCAAAACGCGUGCCCCGUUGAAUGGAGUUUAUCAUG
GGAUCUUCUAGAUCUAACAAAAAAGACAAAUCUGCCACAAAGCUUGAGAGCAUCUUCGGAUGCAGAGGCGGCAGCGUUCGAUGGCUCGAUAGCGCCAACGUUCUCAACUAUGACACGCAAAACGCGUGCUCCGUUGUAUGGAGUUUAUCAUG
GGAUCUUCUAGAUCUAACAAUAAAGACAAAUCUGCCACAAAGCUUGAGAGCAUCUUCGGAUGCAGAGGCGGCAGCCUUCGGUGACGCGAUAGCGCCUACGUUCUCAACUAUGGCACGCAAAACGCGUGCUCCGUUGAAUGGAGUUUAUCAUG
GGAUCUUCUAGAUCUAACAAAACAGACAAAUCUGCCACAAAGCUUGAGAACAUCUUCGGAUGCAGAGGCGGCAGGCUUCGGUGGCGCGAUAGCGUAAACGUUCUCAACUAUGACACGCAAAAGGCGUGCUCCGUUGAAUGGAGUUUAUCAUG
GGAUCUUCUAGAUCUAACAAAAAAGACAAAUCUGCCACAAAGCUUGAGAGCAUCUUCGGAUGCAGAGGCGGCAGCCUUCGGUGGCGCGAUAGCGCUAACGUUCUCAACUAUGACACGCAAAACGCGUGCUCCGUUGAAUGGAAUUUAUCAUG
GGAUCUUCUAGAUCUAACAAAAAAGACAAAUCUGCCACAAAGCUUGAGAGCAUAUUCGGAUGCAGAGGCGGCAGCCUUCGGUGGCGCGAUCGCGCCAACGUUCUAAACUAUGACACGCAAAACGCGUGAUCCGUUGAAUGGACUUUAUCAUG
GGAUCUUCUAGAUCUAACAAAAAAGACAAAUGUGCCACAAAGCGUGAGAGCAUCUUUGGAUGCAGAGGCGGCAGCCUUCGGGAGCGCGAUAGCGCCAACGUUCUCAACUAUGACACGCAAAACGCGUGCUCCGUUGAAUGGAGUUUAUCAUG
GGAUCUUCUAGAUCUAACAAAAAAGACAAAUCUGCCACAAAGCUUGAGAGCAUCUUCGGAUGCAGAGGCGGCAGCCUUAGGUGGCGCGAUAGCGCCGACGUUCUCAACUAUGACACGCAAAACGCGUGCUCCGUUGAAUGGAGUUUAUCGUG
GGAUCUUCUAGAUCUAACAAAAAAGACAAAUAUGCCACAAAGCUUGAGAGCAUCUGCGGAUGCAGAGGCGGCAGCCUUCCGGGGCGUGAUAGCGCCAUCGUUCUCAACUAUGACACGCAAAACGCGUGCUCCGUUGAAUGGAGUUUAUCAUG
GGAUCUUCUAGAUCUAACAAAAAAGACAAAUCUGCCACAAUGCUUGAGAGGAUCUUCGGAUGCAGAGGCGGCAGCCUUCGGUGGCGAGAUAGCGCCAACGUUCUCAACUAUGACACGCAAAACGCGUGCUCCGUUGAAUGGAGUUUAUCAUG
GGAUCUUCUAGAUCUAACAAAAACGACAAAUCUGCCACAAAGCUUGAGAGCAUCUUCGGAUGCAGAGGCGACAGCCGUCGGUGGCGCGAUAGCACCAAAGUUCUCAACUAUGACACGCAAAACGUGUGCUCCGUUGAAUCGAGUUUAUCAUG
GGAUCUUCUAGAUCUAACAAAAAAGACAAAUCUGUCACAAAGCUUGAGAGCAUCUUCGGAUGCAGAGGCGGCAGCCUUCGGUGGCGCGAUAGCGCCUACGUUCUCAACUAUGACACGCAAAACGCGUGCUCCGUUGAAUGGAGUUUAUCAUG
GGAUCUUCUAGAUCUAACAGAACUGGCAAAUCUGCCACAAAGCUUGAGAGCAUCUUCGGAUGCAGAGGCGGCAGCCUUCGGUGGGGCGAUGGCGCCAACUUUCUCAACUAUGACGCGCAAAACGCGUGCUCCGUUGAAUGGAGUUUAUCAUG
GGAUCUUCUAGAUCUAACAAAAAAGACAAAUCUGCCACAAAGCUUGAGAGCAUCUUCGGAUGCAGAGGCGGCAGCCUUCGGUGGGGCGAUAGCGCCAACGUUCUCAACUAUGACACGCAAAACGCGUGCUCCGUUGAAUGUAGUUUAUCAUG
GGAUCUUCUAGAUCUAACAAAAAAGAGAAAUCUGCCACAAAGCUUGAGAGCAUCUUCGGAUGCAGAGGCGGCAGCCCUCGGUAGCGCGAUAGCGCCAACGUUCUCAACUAUGACACGCAAAACGCGUGCUCCGUUGAAUGGAGUUUAUCAUG
GGAUCUUCUAGAUCUAACAAAAAAGACAAAUCUGCCACAAAGCUUGAGAGCAUCUUCGGAUGCAGAGGCGGCAGCCUUCGGUGGUGCGAUAGCGCCAACGUUCUCAACUAUGACACGCAAAACGCGUGCUCCCAUGAAUGGAGUUGAUCAUG
GGAUCUUCUAGAUCUAACAAAAAAGACAAAUCUUCCACAUAGCUUGAGAGCAUCUUUGGAUGCAGAGGCGGCAGCCUGUGGUGCAGCGAUAGCGCCAACGUUCACAACUAUGACACGCACAACGCGUGCUCCGUUGAAUGGAGUUUAUCAUG
GGAUCUUCUAGAUCUAACAAAAAAGACAAAUCUGCCACAAAGCUUGAGAGCAUCUUCGGAUGCAGAGGCGGCAGCCUUCGGUGGCGCGAUGGUGCCAACGUUCUCAACUAUGACACGCAAAACGCGUGCUCCGUUGAAUGGAGGUUAUCAUG
GGAUCUUCUAGAUCUAACAAAAAAGACAAAUCUGCCACAAAGCUUGAGAGCAUAUUCGGAUGCAGAGGCGGCAGCCUUCGGUGGCGCGAUAGCGCCAACGUUCUCAACUAUGACACGCAAAACGCGUGCUCCGUUGAAUGGAGUUUAUCAUG
GGAUCUUCUAGAUCUAACAAAAAAGACGAAUCUGCCACAAAGCUUGAGAGCAUCUGCGGAUGCAGAGGCGGCAGCCUUCGGUGGAGCGAUAGCGCCAACGUUCUCAACUAUGACACGCAAAACGCGUGCUCCGUUGAAUGGAGUUUAUCAUG
GGAUCUUCUAGAUCUAACAAAAAAGACAAAUCUGCCACAAAGCUUGAGAGCAUCUUCGGAUGCAGAGGCGGCAGCCUUCGGUGGCGCGAUAGCGCCAACGUUCUCGACUAUGACACGCAAAACGCUUGCUCCGUUGAAUGGAGUUUAUCAUG
GGAUCUUCUAGAUCUAACAAAAAAGACUAAUCUGCCACAAAGCUUGAGAGCAUCUUCAGAUGCAGAGGCGGCAGCCUUCGGUGGCGCGAUAGCGCUAACGUUCUCAACUAUGACACGCAAAGCCCGUGCUCCGUUGAAUGGAGUUUAUCAUG
GGAUCUUCUAAAUCUAACAAAAAAGACAAAUCUGCCACUAAGCUUGAGAGCAUCUUCGGAUGCAGAGGCGGCAGCCUUCGGUGGCGCGAUAGAGCCAACGUUCUCAACUAUGACACGCAAAACGCGUGCUCCGUUGAAUGUAGUUUAUCAUG
